Literature values as cited in article PMC4666935.

Legend:
PAI-1 (Homo sapiens) = PAI-1 (Homo sapiens) (UniProt P05121)
[1] = molecular target: uPA-PAI-1 complex (Homo sapiens) (UniProt P00749)
Sequence of uPA-PAI-1 complex (Homo sapiens) (P05121 24-402, chain 2 of 2, other chains not shown): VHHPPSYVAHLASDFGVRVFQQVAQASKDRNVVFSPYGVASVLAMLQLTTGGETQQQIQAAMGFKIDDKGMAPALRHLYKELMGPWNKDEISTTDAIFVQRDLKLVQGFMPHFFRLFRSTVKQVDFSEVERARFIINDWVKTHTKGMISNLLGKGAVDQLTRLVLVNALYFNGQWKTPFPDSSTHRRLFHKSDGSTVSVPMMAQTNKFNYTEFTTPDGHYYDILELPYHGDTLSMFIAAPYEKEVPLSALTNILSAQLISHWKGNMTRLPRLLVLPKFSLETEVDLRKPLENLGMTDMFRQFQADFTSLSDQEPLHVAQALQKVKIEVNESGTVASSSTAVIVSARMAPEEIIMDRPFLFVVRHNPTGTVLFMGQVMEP

Sequence of vasoinhibin (P01236 29-227): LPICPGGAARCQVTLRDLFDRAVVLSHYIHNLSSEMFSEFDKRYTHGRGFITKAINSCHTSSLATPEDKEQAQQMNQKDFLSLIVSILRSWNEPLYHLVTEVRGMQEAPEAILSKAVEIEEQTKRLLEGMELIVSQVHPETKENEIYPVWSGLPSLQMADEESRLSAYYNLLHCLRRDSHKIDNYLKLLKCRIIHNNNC
Sequence of PAI-1 (Homo sapiens) (P05121 24-402): as the sequence (P05121 24-402, chain 2 of 2, other chains not shown) above

Kd (PAI-1 (Homo sapiens)): 1000 nM | Kd [1]: 500 nM
Substance: vasoinhibin (from UniProt P01236)
